Laboratory results: patent publication US6365366

Key:
Parameters in all cases: key to the marks not given beside the values
[1] = tested on: T1, VDQGSMAASLVGT peptide (SEQ ID NO:9)
T1 sequence: VDQGSMAASLVGT

[2] = tested on: T2, GGSLCTSF peptide (SEQ ID NO:4)
T2 sequence: GGSLCTSF

[3] = tested on: T3, GGSFCTSL peptide (SEQ ID NO:6)
T3 sequence: GGSFCTSL

[4] = tested on: T4, VDQGSIAASFVGT peptide (SEQ ID NO:10)
T4 sequence: VDQGSIAASFVGT

[5] = tested on: T5, AKDVDQGSVCTSFVGTLQY peptide (SEQ ID NO:11)
T5 sequence: AKDVDQGSVCTSFVGTLQY

[6] = tested on: T6, VDQGSLAASFVGT peptide (SEQ ID NO:8)
T6 sequence: VDQGSLAASFVGT

[7] = tested on: T7, AKDVDQGSFCTSLVGTLQY peptide (SEQ ID NO:13)
T7 sequence: AKDVDQGSFCTSLVGTLQY

[8] = tested on: T8, AKDVDQGSLCTSLVGTLQY peptide (SEQ ID NO:12)
T8 sequence: AKDVDQGSLCTSLVGTLQY

[9] = tested on: T9, GGSLMTSF peptide (SEQ ID NO:5)
T9 sequence: GGSLMTSF

[10] = tested on: T10, DQGSFCTSL peptide (SEQ ID NO:7)
T10 sequence: DQGSFCTSL

Measured: T2K substrate specificity

T2K kinase
+++: [1] | [2] | [3] | [4] | [5] | [6] | [7] | [8] | [9] | [10]
